Measured values from the supplement of paper PMC10065799, “High-throughput profiling of sequence recognition by tyrosine kinases and SH2 domains using bacterial peptide display” (eLife, 2023).

Tests used:
[1] = biological target: SHP2-C SH2; assay: SH2 binding enrichment of the phosphorylated peptide, bacterial display (enrichment ratio); higher = better substrate or ligand; peptides without Tyr show the background
[2] = biological target: c-Src SH2; assay: as above
[3] = biological target: Grb2 SH2 (UniProt P62993); assay: as above
Chain of Grb2 SH2 (P62993 whole entry, looked up): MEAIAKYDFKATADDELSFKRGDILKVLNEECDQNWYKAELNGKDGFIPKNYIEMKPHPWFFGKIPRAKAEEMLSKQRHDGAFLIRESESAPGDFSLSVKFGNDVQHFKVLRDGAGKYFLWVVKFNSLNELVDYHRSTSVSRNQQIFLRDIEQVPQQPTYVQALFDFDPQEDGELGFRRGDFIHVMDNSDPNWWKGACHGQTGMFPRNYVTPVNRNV

[4] = biological target: Fyn (UniProt P06241); assay: phosphorylation enrichment, bacterial display (enrichment ratio); higher = better substrate or ligand; peptides without Tyr show the background
Chain of Fyn (P06241 whole entry, looked up): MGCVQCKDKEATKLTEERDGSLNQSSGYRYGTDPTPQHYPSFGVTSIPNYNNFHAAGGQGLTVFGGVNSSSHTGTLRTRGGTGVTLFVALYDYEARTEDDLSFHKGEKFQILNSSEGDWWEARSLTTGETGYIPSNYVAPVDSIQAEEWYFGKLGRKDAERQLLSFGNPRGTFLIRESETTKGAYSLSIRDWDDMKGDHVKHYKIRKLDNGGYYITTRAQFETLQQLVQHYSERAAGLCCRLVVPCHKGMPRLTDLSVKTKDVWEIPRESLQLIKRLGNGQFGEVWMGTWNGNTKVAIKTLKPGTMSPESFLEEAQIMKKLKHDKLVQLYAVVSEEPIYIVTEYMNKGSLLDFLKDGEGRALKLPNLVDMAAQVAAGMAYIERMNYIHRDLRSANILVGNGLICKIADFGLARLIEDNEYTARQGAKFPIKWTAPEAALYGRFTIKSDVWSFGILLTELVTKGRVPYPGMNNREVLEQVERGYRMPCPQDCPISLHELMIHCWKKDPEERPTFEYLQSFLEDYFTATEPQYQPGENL

[5] = biological target: EPHB2 (UniProt P29323); assay: as above
Chain of EPHB2 (P29323 whole entry, looked up): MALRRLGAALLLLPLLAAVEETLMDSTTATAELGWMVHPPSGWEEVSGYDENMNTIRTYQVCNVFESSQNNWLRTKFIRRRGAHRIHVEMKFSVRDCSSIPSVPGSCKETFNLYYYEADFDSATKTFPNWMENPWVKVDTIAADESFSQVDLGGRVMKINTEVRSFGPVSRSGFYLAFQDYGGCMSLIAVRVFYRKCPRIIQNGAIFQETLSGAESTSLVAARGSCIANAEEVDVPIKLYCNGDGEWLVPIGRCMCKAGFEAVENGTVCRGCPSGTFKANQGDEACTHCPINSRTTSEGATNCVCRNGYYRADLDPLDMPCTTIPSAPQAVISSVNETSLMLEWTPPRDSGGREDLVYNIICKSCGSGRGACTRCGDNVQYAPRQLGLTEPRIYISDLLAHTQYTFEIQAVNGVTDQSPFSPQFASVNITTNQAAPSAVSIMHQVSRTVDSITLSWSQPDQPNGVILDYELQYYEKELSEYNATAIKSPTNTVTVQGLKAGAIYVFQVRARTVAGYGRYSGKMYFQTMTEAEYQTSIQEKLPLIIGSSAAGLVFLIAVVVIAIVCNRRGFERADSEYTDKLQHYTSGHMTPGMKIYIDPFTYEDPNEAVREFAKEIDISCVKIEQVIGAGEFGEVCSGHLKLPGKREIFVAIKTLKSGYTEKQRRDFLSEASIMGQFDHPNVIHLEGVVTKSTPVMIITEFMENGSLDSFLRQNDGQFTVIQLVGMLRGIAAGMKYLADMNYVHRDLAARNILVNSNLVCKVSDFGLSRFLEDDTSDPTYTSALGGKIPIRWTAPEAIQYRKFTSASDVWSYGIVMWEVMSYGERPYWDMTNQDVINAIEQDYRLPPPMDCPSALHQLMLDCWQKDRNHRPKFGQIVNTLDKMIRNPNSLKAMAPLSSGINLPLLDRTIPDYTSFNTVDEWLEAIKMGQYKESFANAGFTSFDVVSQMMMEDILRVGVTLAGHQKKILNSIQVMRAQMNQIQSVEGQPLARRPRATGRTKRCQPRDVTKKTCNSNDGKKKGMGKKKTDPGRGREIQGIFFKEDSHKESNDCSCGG

[6] = biological target: FGFR3 (UniProt P22607); assay: as above
Chain of FGFR3 (P22607 whole entry, looked up): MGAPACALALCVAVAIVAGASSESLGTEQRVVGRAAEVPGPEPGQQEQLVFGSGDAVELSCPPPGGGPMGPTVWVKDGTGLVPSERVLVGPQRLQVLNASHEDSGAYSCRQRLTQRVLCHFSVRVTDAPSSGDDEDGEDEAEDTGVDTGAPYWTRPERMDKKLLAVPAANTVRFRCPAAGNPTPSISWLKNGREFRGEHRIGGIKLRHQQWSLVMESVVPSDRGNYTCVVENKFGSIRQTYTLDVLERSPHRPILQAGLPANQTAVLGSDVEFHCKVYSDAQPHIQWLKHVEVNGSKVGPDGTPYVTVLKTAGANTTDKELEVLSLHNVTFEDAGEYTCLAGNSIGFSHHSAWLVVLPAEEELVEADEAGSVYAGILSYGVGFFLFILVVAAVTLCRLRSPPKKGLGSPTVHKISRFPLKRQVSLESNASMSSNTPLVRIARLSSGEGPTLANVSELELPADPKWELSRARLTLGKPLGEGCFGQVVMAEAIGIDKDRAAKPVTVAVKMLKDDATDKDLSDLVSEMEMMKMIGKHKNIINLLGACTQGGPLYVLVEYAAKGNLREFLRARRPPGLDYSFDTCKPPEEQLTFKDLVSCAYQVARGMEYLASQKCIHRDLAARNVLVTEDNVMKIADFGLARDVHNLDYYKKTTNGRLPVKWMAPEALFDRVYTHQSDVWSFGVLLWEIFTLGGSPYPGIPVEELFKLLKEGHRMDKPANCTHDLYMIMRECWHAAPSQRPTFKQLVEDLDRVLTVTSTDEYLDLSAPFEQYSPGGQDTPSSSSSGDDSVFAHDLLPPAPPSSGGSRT

[7] = biological target: Fes (UniProt P07332); assay: as above
Chain of Fes (P07332 whole entry, looked up): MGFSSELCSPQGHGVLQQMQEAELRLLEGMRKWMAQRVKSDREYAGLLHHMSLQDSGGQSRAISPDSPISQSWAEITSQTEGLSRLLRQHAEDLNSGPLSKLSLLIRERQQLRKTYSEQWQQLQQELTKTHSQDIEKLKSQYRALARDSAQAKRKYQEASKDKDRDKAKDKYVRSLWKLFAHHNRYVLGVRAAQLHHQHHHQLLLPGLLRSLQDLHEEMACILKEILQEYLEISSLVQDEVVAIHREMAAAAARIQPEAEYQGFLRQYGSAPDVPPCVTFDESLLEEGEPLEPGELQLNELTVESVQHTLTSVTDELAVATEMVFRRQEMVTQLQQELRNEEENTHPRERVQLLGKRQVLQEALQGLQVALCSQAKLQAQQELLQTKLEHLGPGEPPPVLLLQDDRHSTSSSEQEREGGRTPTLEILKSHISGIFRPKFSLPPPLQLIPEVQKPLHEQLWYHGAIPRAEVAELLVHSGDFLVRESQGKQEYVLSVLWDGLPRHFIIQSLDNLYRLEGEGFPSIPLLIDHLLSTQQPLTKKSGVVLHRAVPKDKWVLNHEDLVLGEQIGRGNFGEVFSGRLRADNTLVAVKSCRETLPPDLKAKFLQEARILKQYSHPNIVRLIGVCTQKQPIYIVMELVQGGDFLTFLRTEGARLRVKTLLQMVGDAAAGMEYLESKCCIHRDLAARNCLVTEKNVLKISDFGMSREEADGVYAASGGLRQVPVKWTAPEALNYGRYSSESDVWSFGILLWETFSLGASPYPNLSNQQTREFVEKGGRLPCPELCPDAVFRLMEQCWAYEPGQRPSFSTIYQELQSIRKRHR

[8] = test system: c-Abl (mouse); assay: as above
[9] = biological target: EPHB1 (UniProt P54762); assay: as above
[10] = biological target: MERTK (UniProt Q12866); assay: as above
[11] = test system: AncSZ; assay: as above
[12] = biological target: Hck (UniProt P08631); assay: as above
[13] = biological target: FGFR1 (UniProt P11362); assay: as above
[14] = test system: c-Src; assay: as above
[15] = test system: Fer (mouse); assay: as above
[16] = biological target: Jak2 (UniProt O60674); assay: as above
Chain of Jak2 (O60674 whole entry, looked up, the tested form may be a part): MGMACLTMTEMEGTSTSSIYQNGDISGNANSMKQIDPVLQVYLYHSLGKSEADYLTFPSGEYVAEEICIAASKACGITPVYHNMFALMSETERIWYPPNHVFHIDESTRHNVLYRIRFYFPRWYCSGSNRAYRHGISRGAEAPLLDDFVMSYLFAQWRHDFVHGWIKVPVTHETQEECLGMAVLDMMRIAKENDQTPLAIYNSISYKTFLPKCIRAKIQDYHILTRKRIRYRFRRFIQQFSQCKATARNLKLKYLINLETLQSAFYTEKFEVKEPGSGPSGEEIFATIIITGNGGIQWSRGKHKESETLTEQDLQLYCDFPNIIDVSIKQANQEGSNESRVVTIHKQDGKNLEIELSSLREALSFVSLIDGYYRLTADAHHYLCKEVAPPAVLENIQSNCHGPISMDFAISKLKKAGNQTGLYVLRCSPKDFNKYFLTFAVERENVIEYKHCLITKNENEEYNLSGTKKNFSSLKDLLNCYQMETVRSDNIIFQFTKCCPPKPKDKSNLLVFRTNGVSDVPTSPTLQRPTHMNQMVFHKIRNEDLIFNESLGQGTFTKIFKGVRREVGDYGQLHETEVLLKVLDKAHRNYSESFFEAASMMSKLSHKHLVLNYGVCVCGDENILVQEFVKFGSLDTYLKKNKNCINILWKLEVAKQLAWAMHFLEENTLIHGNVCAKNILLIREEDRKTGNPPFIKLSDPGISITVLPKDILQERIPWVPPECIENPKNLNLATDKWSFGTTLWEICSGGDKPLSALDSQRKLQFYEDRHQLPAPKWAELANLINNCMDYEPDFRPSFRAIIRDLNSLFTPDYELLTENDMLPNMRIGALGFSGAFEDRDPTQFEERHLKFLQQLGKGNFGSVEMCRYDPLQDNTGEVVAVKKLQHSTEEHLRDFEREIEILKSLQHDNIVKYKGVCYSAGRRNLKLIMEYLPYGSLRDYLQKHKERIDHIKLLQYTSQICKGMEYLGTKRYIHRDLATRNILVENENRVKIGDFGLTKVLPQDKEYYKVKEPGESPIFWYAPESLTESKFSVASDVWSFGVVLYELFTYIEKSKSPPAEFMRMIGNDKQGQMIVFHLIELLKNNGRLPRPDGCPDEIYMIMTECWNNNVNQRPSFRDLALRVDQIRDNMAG
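Throughout, for SH2 binding enrichment of the phosphorylated peptide, bacterial display: peptide library displayed on the E. coli surface as eCPX fusions, selected cells deep-sequenced, score is each peptide's frequency after selection divided by its frequency in the input.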
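Throughout, for phosphorylation enrichment, bacterial display: 11-residue human phosphosite peptides and single-mutation variants displayed on the E. coli surface, counted by deep sequencing, each peptide's frequency after selection divided by its frequency in the unselected input library; frequency after pTyr selection over input frequency; kinase dosed for 20-30% of maximal phosphorylation in three min.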

Sequence	SH2 binding enrichment [1]	SH2 binding enrichment [2]	SH2 binding enrichment [3]	phosphorylation enrichment [4]	phosphorylation enrichment [5]	phosphorylation enrichment [6]	phosphorylation enrichment [7]	phosphorylation enrichment [8]	phosphorylation enrichment [9]	phosphorylation enrichment [10]	phosphorylation enrichment [11]	phosphorylation enrichment [12]	phosphorylation enrichment [13]	phosphorylation enrichment [14]	phosphorylation enrichment [15]	phosphorylation enrichment [16]
TKAEKYVNKPK [PLCG1_Y991_A995P]	1.16	0.999	1.05	0.398	0.376	0.534	0.714	0.942	0.336	0.423	0.72	0.559	0.594	0.467	0.442	0.596
TKDTFYQQPMF [GBA_Y451_K452Q]	0.637	0.902	0.793	0.664	2.01	0.589	0.805	3.38	0.583	4.31	1.07	0.91	0.605	0.639	2.41	0.648
TKFRNYLIPNG [CYP2C8_Y379_K383N]	0.724	0.462	0.946	0.553	0.736	0.502	0.679	0.631	0.527	0.495	0.68	0.432	0.458	0.484	0.394	0.536
TKQLTYEEQFL [PIK3C3_Y310_D314Y_YF]	0.767	0.698	0.98	0.509	0.622	0.65	1.08	0.661	0.611	0.502	1.1	0.419	0.497	0.5	1.03	0.861
TLMNAYSSRSH [KIF11_Y231]	0.552	0.427	0.707	0.517	0.517	0.44	0.579	0.57	0.436	0.636	0.675	0.516	0.449	0.54	0.514	1.08
TLNFCYQQVKS [PTK2_Y148_F147C]	0.896	0.786	0.898	0.44	0.709	0.884	1.28	0.936	0.718	0.399	1.25	0.52	0.617	0.524	0.501	1.07
TLNTNYHLPPS [MT-ATP8_Y33_M28T]	0.608	0.483	0.761	0.47	0.451	1.69	0.587	0.655	1.37	0.57	0.698	0.343	2.51	0.403	0.372	0.485
TLQWMYGCDVG [HLA-B_Y123_S121W]	0.657	0.446	0.772	0.437	0.661	0.814	1.34	1.05	0.744	0.38	1.2	0.485	0.396	0.354	0.566	1.22
TLSGTYQFIIA [FOXL2_Y81_I80T_YF]	1.13	1.11	0.968	0.814	0.924	1.9	1.05	0.611	1.31	2.89	1.27	1.34	2.22	0.892	1.44	0.732
TNLVPYPCIHF [TUBA1A_Y262_R264C]	0.802	0.591	0.894	0.492	0.557	0.66	0.96	0.646	0.599	0.578	0.975	0.534	0.546	0.519	0.517	0.753
TNLVPYTRIHF [TUBA1A_Y262_P263T]	40.4	2.64	1.05	0.45	0.423	0.506	0.829	0.469	0.455	0.374	0.765	0.487	0.468	0.441	0.385	0.682
TNQVIYLNPPI [DYNC1H1_Y970]	0.99	0.459	0.819	0.62	4.73	2.94	0.77	13.9	7.69	3.71	0.849	1.45	3.51	0.743	0.473	0.706
TNYRLYLRSLE [MTM1_Y71]	1.09	0.591	0.9	0.552	0.556	0.776	1.3	1.31	0.666	0.554	1.11	0.555	0.595	0.504	0.524	1.22
TQPSPYAVFLF [RPGRIP1_Y823_R827L_YF]	0.82	0.494	0.91	6.88	1.28	0.942	0.915	15.1	2.12	7.59	0.826	3.69	1.28	5.76	7.3	0.926
TQTPPYVKKHP [LARP1B_Y457]	0.821	0.629	1.01	0.459	0.39	0.521	0.624	0.514	0.458	0.466	0.677	0.357	0.34	0.488	0.439	0.593
TRSYDYMEGED [FGF7_Y58_G62E]	1.05	10.4	0.977	0.607	0.634	0.869	1.47	0.919	0.711	0.591	1.41	0.549	5.52	0.574	0.645	1.51
TRSYKCLLLSM [NF1_Y491_Y491C]	0.872	0.815	1.09	0.425	0.487	0.619	0.94	0.637	0.486	0.434	0.979	0.441	0.375	0.401	0.402	0.784
